Reference: CN103211774A, “一种注射用甲磺酸加贝酯组合物及其制备方法” (CHENGDU EASTON PHARMACEUTICAL Co Ltd, priority 2013, dated 2013)

System: guinea pig (豚鼠)
Assay: Allergy (sensitisation) test (过敏性试验)
Type: in vivo
Conditions: 0.5 ml x 3 every other day; challenge i.v. 1 ml on day 14 and day 21; observed 30 minutes

B1: 阳性对照组: 5% ovalbumin positive control group (protein, UniProt P01012 2-386, looked up)
Ovalbumin: GSIGAASMEFCFDVFKELKVHHANENIFYCPIAIMSALAMVYLGAKDSTRTQINKVVRFDKLPGFGDSIEAQCGTSVNVHSSLRDILNQITKPNDVYSFSLASRLYAEERYPILPEYLQCVKELYRGGLEPINFQTAADQARELINSWVESQTNGIIRNVLQPSSVDSQTAMVLVNAIVFKGLWEKAFKDEDTQAMPFRVTEQESKPVQMMYQIGLFRVASMASEKMKILELPFASGTMSMLVLLPDEVSGLEQLESIINFEKLTEWTSSNVMEERKIKVYLPRMKMEEKYNLTSVLMAMGITDVFSSSANLSGISSAESLKISQAVHAAHAEINEAGREVVGSAEAGVDAASVSEEFRADHPFLFCIKHIATNAVLFFGRCVSP
  allergic reaction symptoms: 竖毛、发抖、干呕、喷嚏、咳嗽、紫癜、呼吸困难、抽搐、休克、死亡
